The source of these data is patent publication US11932683B2, “Cellular factors involved in the cytotoxicity of Staphylococcus aureus leukocidins: novel therapeutic targets” (NEW YORK UNIVERSITY, priority 2013, dated 2024).

Data set [1] has as its target T1, CXCR2 (Homo sapiens, UniProt P25025).
T1 sequence (P25025 1-360): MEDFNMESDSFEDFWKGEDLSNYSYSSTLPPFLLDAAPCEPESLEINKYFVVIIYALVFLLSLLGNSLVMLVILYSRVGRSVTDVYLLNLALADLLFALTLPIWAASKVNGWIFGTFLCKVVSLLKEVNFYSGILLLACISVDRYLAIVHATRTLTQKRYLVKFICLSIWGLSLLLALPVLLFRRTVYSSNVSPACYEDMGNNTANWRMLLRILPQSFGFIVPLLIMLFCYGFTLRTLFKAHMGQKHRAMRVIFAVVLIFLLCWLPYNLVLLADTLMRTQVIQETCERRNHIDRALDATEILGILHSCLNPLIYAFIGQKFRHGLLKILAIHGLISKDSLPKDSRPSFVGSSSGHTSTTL
The data set can be described thus: Pulldown of His-tagged toxin with cell lysates containing HA-tagged CXCR2. It is filed as binding. Also noted: host or cells: HEK293T. The note with it: HA-tagged receptor lysate. How it is done:
(§1) Biochemical assays to examine interactions between LukED and CXCR1 or CXCR2. HEK293T cells were transiently transfected with cDNAs encoding N-terminal HA-tagged CXCR1 or CXCR2 (Missouri S&T cDNA Resource Center) using Lipofectamine 2000 (Invitrogen). Forty-eight hours post transfection, cells were detached with PBS containing 5 mM EDTA and membrane proteins were solubilized (approximately 1×10^6 cells per condition) for 1 hour using lysis buffer (PBS+10mM imidazole (Fisher)+1% Brij 010 (Sigma)+1 mM PMSF (Thermo Scientific)+2× protease inhibitor pellets (Roche)). His-tagged LukE and LukD were incubated with equilibrated Ni-NTA resin (Qiagen) for 2 hours, followed by three washes in lysis buffer. Lysates and resin were then incubated together for 2 hours, followed by three washes in lysis buffer and final resuspension of resin in 45 μl of 4×SDS sample buffer. Protein samples were run on 10% SDS-PAGE gels at 80V, followed by transfer to nitrocellulose membranes (GE) for 1 hour at 1 Amp. Membranes were blocked with PBS+0.01% Tween-20+5% non-fat milk for 1 hour and incubated overnight at 4° C. with either anti-His antibody diluted at 1:3,000 in PBS+0.01% Tween-20 for toxins (Cell Sciences) or anti-HA antibody diluted at 1:1,000 in with PBS+0.01% Tween-20+5% non-fat milk for receptors (Covance). […]

The subject of data set [2] is human PMNs. The data set can be described thus: Binding and competition assays with GFP-LukE/GFP-LukD on PMNs, flow cytometry. The note with it: GFP-LukE 300 nM.
Method: Binding and competition assays. For binding assays, increasing concentrations of GFP-LukE or GFP-LukD were added to 5×10^4 human PMNs and incubated for 30 minutes on ice, then washed once in FACS buffer and fixed for 15 minutes at room temperature followed by flow cytometric analysis. Mean fluorescence intensity (MFI) of GFP^+ cells was measured to establish the toxin concentration required to achieve saturable binding. For remaining competition assays, increasing concentrations of either LukE or LukS-PV were co-incubated with a constant saturable concentration of LukE-GFP (300 nM) for 30 minutes. Cells were washed once in FACS buffer, fixed for 15 minutes in FACS fixing buffer, washed again in FACS buffer, and binding was assessed by flow cytometry. The mean GFP fluorescent intensity is represented as % GFP^+, based on the maximal fluorescence observed upon incubation with 300 nM GFP-LukE. […] Cells were washed once in FACS buffer, fixed for 15 minutes in FACS fixing buffer, washed again in FACS buffer, and binding was assessed by flow cytometry as described above. Results for these assays were depicted graphically using GraphPad PRISM software (version 5.0f, GraphPad PRISM Software, Inc.).
In data set [3] the test system is CXCR1 and CXCR2 activation on human PMNs. Kind of data set: Calcium mobilization on PMNs (Fluo4-AM, flow cytometry). It is filed as cell-based. The note with it: LukE 300 nM. How it is done:
Measurements of calcium mobilization. CXCR1 and CXCR2 activation on human PMNs was evaluated using the fluorescent calcium indicator Fluo4-AM (Invitrogen) as previously described (Alonzo et al., “CCR5 is a Receptor for Staphylococcus aureus Leukotoxin ED,” Nature 493:51-55 (2013), which is hereby incorporated by reference in its entirety). Briefly, cells were incubated for 30 minutes at room temperature with 3 μM of Fluo4-AM in Hank's Balanced Salt Solution (HBSS) followed by three washes in HBSS and equilibration at 37° C. for 30 minutes. Baseline calcium levels were analyzed over time on a flow cytometer for 60 seconds. […] The mean fluorescent intensity over 5-second intervals was plotted for graphical display.
For orientation: Calcium flux is commonly read through the fluorescence of an indicator in the cells.

Data set [4] concerns the target T2, CXCR1 (Homo sapiens, UniProt P25024).
T2 sequence (P25024 1-350): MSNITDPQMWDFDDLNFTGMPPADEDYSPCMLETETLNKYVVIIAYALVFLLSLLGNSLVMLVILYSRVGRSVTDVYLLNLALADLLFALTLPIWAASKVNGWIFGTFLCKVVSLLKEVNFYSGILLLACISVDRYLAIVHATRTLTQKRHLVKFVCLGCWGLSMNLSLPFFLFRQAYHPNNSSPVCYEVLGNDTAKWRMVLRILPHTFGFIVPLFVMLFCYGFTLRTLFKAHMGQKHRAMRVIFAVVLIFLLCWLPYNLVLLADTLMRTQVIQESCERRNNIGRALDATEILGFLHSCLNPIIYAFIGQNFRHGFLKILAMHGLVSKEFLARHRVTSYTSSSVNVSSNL
Kind of data set: Pulldown of His-tagged toxin with cell lysates containing HA-tagged CXCR1. In kind it is binding. More on the design: host or cells: HEK293T. The note with it: HA-tagged receptor lysate. How it is done: as §1

Data set [5] deals with T1, CXCR2. Kind of data set: Toxin susceptibility of HEK293T cells transfected with chemokine receptor CXCR2. In kind it is cell-based. Also noted: expressed in transfected cells; host or cells: HEK293T. The note with it: viability (600 nM) or ethidium bromide permeability (1 hr; HlgAB/HlgCB 20 μg/ml). Here is the method:
Cell culture conditions and viral transductions. Primary human cells and THP-1 were cultured at 37° C. with 5% CO2 in RPMI supplemented with 10% fetal bovine serum (FBS; Atlanta Biologicals) and penicillin (100 U ml-1) and streptomycin (0.1 mg ml-1) (Mediatech) unless stated otherwise. Overexpression and lentiviral-based knockdown of Cxcr2 or non-target shRNA were performed as previously described (Wan et al., “Cytokine Signals Through PI-3 Kinase Pathway Modulate Th17 Cytokine Production by CCR6+ Human Memory T Cells,” J. Exp. Med. 208:1875-1887 (2011), which is hereby incorporated by reference in its entirety) and maintained in 1.3 μg ml-1 puromycin. HEK293T cells were cultured at 37° C. with 5% CO2 in DMEM (Cellgro) and supplemented as described above.
(§2) Leukotoxin treatments. HEK293T cells, THP-1, primary human PBMCs and primary murine peritoneal exudate cells were treated with LukE, LukD or LukED as previously described (Alonzo et al., “CCR5 is a Receptor for Staphylococcus aureus Leukotoxin ED,” Nature 493:51-55 (2013), which is hereby incorporated by reference in its entirety). In all experiments 1-2×10^5 cells were seeded into 96-well plates. […]

The target of the next data set is T3, DARC (Homo sapiens, UniProt Q16570).
T3 construct: expressed in transfected cells; host or cells: HEK293T
T3 sequence (Q16570 1-336): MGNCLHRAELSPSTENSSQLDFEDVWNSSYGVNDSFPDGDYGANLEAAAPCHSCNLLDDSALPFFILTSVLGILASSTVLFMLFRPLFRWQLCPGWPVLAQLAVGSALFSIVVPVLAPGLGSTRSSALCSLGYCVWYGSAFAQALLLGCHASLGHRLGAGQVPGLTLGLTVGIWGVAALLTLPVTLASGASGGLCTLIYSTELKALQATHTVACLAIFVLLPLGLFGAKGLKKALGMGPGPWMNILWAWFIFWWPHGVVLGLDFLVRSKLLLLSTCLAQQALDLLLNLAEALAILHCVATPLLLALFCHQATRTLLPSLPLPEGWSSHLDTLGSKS
The data set can be described thus: Toxin susceptibility of HEK293T cells transfected with DARC. It is filed as cell-based. The note with it: ethidium bromide permeability (1 hr; HlgAB/HlgCB 20 μg/ml).

Data set [6] deals with human PMNs. Kind of data set: Viability of primary human neutrophils (PMNs) treated with leukotoxins. The note with it: HlgA or hybrid mixed equimolar with HlgB; CellTiter; n=8 donors. It is filed as cell-based.
In data set [7] the target is T2, CXCR1. Kind of data set: Toxin susceptibility of HEK293T cells transfected with chemokine receptor CXCR1. In kind it is cell-based. Also noted: expressed in transfected cells; host or cells: HEK293T. The note with it: viability (600 nM) or ethidium bromide permeability (1 hr; HlgAB/HlgCB 20 μg/ml).
For the next data set, the system named is monocytes within PBMCs. The data set can be described thus: LukED treatment of human PBMCs, CD14/CD3 flow cytometry. In kind it is cell-based. The note with it: CCR5+-gated PBMC; LukED 75 nM plus MVC 100 ng/mL. How it is done: Isolation of PBMCs. Blood was obtained as buffy coats with the consent of de-identified donors from the New York Blood Center. PBMCs were isolated from blood using a Ficoll-Paque PLUS gradient (GE Amersham) and gated on CCR5^+ cells, followed by anti-CD3 and CD14 cell surface staining for lymphocyte and monocyte populations. Cells were then incubated with LukED (75 nM) in the presence or absence of maraviroc (MVC, 100 ng ml-1).
CCR5 inhibitor and ligands. Maraviroc was obtained through the AIDS Research and Reference Reagent Program, Division of AIDS (NIAID, NIH) and used at a final concentration of 100 ng ml-1.
FACS analysis. Cell staining was performed as described previously (Alonzo et al., “CCR5 is a Receptor for Staphylococcus aureus Leukotoxin ED,” Nature 493:51-55 (2013), which is hereby incorporated by reference in its entirety). FACS data were obtained using FACSDiva software on a LSRII flow cytometer (BD Biosciences). Data was analyzed using FlowJo software (Treestar).
as §2
On the technique in general: A flow cytometer gives signals particle by particle.

For a further data set, the system named is CCR5^+ cells. The note with it: cited from earlier work.
A further data set concerns human RBCs. The data set can be described thus: LukED-mediated lysis of human red blood cells. In kind it is cell-based. The note with it: n=3 donors.

Consider “LukE: S. aureus Leukocidin E subunit, soluble protein SEQ ID NO:4”, for which the “complex formation with CXCR2 (pulldown, immunoblot)” value in the data set with CXCR2 [1] is “forms complexes with both CXCR1 and CXCR2”. The “competition with GFP-LukE binding to PMNs” value in the data set with human PMNs [2] was “competed off”. The “calcium mobilization on PMNs” value in data set [3] is “unable to elicit calcium mobilization”. The “complex formation with CXCR1 (pulldown, immunoblot)” value with CXCR1 [4] was “forms complexes with both CXCR1 and CXCR2”.
“HlgAB: S. aureus γ-hemolysin bicomponent leukotoxin, HlgA (SEQ ID NO:6) plus HlgB (SEQ ID NO:16)”: the “susceptibility of CXCR2-transfected HEK293T cells to toxin” value in the data set with CXCR2 [5] is “rendered cells susceptible”. Besides, the “susceptibility of DARC-transfected HEK293T cells to toxin” value with DARC is “rendered cells susceptible”. For the same molecule, the “cytotoxic activity against hPMNs” value in the data set on human PMNs [6] is “exhibited potent cytotoxic activity against hPMNs”. In addition, in the data set with CXCR1 [7], the “susceptibility of CXCR1-transfected HEK293T cells to toxin” value is given as “rendered cells susceptible”.
Regarding Maraviroc [reference compound], the “protection of monocytes from LukED-mediated death” value in the data set with monocytes within PBMCs is “does not protect monocytes from LukED-mediated death”. Also, the “block of LukED mediated killing of CCR5+ cells” value with CCR5^+ cells is “known to block LukED mediated killing of CCR5^+ cells”.

B1: HlgA^LukE-DR4/HlgB: HlgA with its DR4 domain swapped with LukE DR4, mixed equimolar with HlgB (protein)
chain 1: ENKIEDIGQGAEIIKRTQDITSKRLAITQNIQFDFVKDKKYNKDALVVKMQGFISSRTTYSDLKKYPYIKRMIWPFQYNISLKTKDSNVDLINYLPKNKIDSADVSQKLGYNIGGNFQSAPSIGGSGSFNYSKTISYNQKNYVTEVESQNSKGVKWGVKANSFVTPNGQVSAYDQYLFAQSPNGPTGSAREYFAPDNQLPPLIQSGFNPSFITTLSHERGKGDKSEFEITYGRNMDATYAYVTRHRLAVDRKHDAFKNRNVTVKYEVNWKTHEVKIKSITPK
chain 2: EGKITPVSVKKVDDKVTLYKTTATADSDKFKISQILTFNFIKDKSYDKDTLVLKATGNINSGFVKPNPNDYDFSKLYWGAKYNVSISSQSNDSVNVVDYAPKNQNEEFQVQNTLGYTFGGDISISNGLSGGLNGNTAFSETINYKQESYRTTLSRNTNYKNVGWGVEAHKIMNNGWGPYGRDSFHPTYGNELFLAGRQSSAYAGQNFIAQHQMPLLSRSNFNPEFLSVLSHRQDGAKKSKITVTYQREMDLYQIRWNGFYWAGANYKNFKTRTFKSTYEIDWENHKVKLLDTKETENNK
modifications: left off: small tags and cut ends
B1: the “cytotoxic activity against hPMNs” value with human PMNs [6] is “exhibited potent cytotoxic activity against hPMNs”.

B2: DARC: purified Duffy antigen receptor for chemokines (OriGene Technologies Inc.) (protein)
chain: MGNCLHRAELSPSTENSSQLDFEDVWNSSYGVNDSFPDGDYGANLEAAAPCHSCNLLDDSALPFFILTSVLGILASSTVLFMLFRPLFRWQLCPGWPVLAQLAVGSALFSIVVPVLAPGLGSTRSSALCSLGYCVWYGSAFAQALLLGCHASLGHRLGAGQVPGLTLGLTVGIWGVAALLTLPVTLASGASGGLCTLIYSTELKALQATHTVACLAIFVLLPLGLFGAKGLKKALGMGPGPWMNILWAWFIFWWPHGVVLGLDFLVRSKLLLLSTCLAQQALDLLLNLAEALAILHCVATPLLLALFCHQATRTLLPSLPLPEGWSSHLDTLGSKS
For the molecule B2, the “inhibition of LukED-mediated lysis of RBCs” value with human RBCs is on record as “fully neutralize LukED-mediated lysis of RBCs”.
